The results in this text go back to paper PMC12366639.

Substrate in this series: CC=O
The series can be described thus: purified protein. Type of series: biochemical, Homo sapiens. The note with it: NAD+.

B1: aldehyde dehydrogenase 2 (ALDH2) (Homo sapiens) (protein)
chain: SAAATQAVPAPNQQPEVFCNQIFINNEWHDAVSRKTFPTVNPSTGEVICQVAEGDKEDVDKAVKAARAAFQLGSPWRRMDASHRGRLLNRLADLIERDRTYLAALETLDNGKPYVISYLVDLDMVLKCLRYYAGWADKYHGKTIPIDGDFFSYTRHEPVGVCGQIIPWNFPLLMQAWKLGPALATGNVVVMKVAEQTPLTALYVANLIKEAGFPPGVVNIVPGFGPTAGAAIASHEDVDKVAFTGSTEIGRVIQVAAGSSNLKRVTLELGGKSPNIIMSDADMDWAVEQAHFALFFNQGQCCCAGSRTFVQEDIYDEFVERSVARAKSRVVGNPFDSKTEQGPQVDETQFKKILGYINTGKQEGAKLLCGGGIAADRGYFIQPTVFGDVQDGMTIAKEEIFGPVMQILKFKTIEEVVGRANNSTYGLAAAVFTKDLDKANYLSQALQAGTVWVNCYDVFGAQSPFGGYKMSGSGRELGEYGLQAYTEVKTVTVKVPQKNS
Turning to B1, the Km (usually the substrate concentration at which the rate is half of its maximum) amounted to 1.8 µM.
